According to PMC3121799, “Mechanism of Heparin Acceleration of Tissue Inhibitor of Metalloproteases-1 (TIMP-1) Degradation by the Human Neutrophil Elastase” (PLoS ONE, 2011):
One block for each molecule: values may come before it. Square brackets hold non-standard residues; d marks the D form. Ends that are not written are not given here. * marks the point of attachment. EDDnp = O=[N+]([O-])c1ccc(NCCN*)c([N+](=O)[O-])c1; 2Abz = Nc1ccccc1C(=O)O

How the values were obtained:
Nterm16 = experiment: kinetics; details: 37 °C, Constant ionic strength buffer system containing 140 mM NaCl, 25 mM glycine, 25 mM acetic acid, 25 mM Mes, 75 mM Tris, 0.05% (v/v) Triton X-100, pH adjusted with HCl or NaOH
His57 = His57 (UniProt position 70, VMSAAHCVANV); experiment: kinetics; details: 37 °C, Constant ionic strength buffer system containing 140 mM NaCl, 25 mM glycine, 25 mM acetic acid, 25 mM Mes, 75 mM Tris, 0.05% (v/v) Triton X-100, pH adjusted with HCl or NaOH
[1] = molecular target: T1, Human neutrophil elastase (human, UniProt P08246 30-267); experiment: stopped-flow fluorescence kinetics of substrate hydrolysis (pre-steady-state, fit to a three-step mechanism with DynaFit IV); both in solution; 3.8 µM FRET-peptide, 12.6 nM HNE (12.7 nM in the methods), 25°C, 10 mM Tris-HCl pH 7.4, 100 mM NaCl, with 50 µM heparin; details: both partners purified
T1 sequence (P08246 30-267): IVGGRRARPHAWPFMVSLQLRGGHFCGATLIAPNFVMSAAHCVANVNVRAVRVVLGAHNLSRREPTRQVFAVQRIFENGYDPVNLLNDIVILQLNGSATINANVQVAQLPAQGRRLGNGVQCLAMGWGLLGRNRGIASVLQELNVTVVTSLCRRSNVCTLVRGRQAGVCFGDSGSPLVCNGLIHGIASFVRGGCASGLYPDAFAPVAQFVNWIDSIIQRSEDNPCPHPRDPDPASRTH

[2] = molecular target: T1, Human neutrophil elastase; experiment: stopped-flow fluorescence kinetics of substrate hydrolysis (pre-steady-state, fit to a three-step mechanism with DynaFit IV); both in solution; 3.8 µM FRET-peptide, 12.6 nM HNE, 25°C, 10 mM Tris-HCl pH 7.4, 100 mM NaCl, no heparin; details: both partners purified
[3] = Free enzyme, no heparin (control)
[4] = Heparin-bound enzyme (50 µM 14 kDa heparin)

Molecule: Human neutrophil elastase (HNE; leukocyte elastase, EC 3.4.21.37) (Homo sapiens)
pKa (Nterm16; [3]): 8.93±0.05
pKa (Nterm16; [4]): 9.60±0.07
pKa (His57; [3]): 6.71±0.05
pKa (His57; [4]): 7.04±0.07

koff [1]: 0.081 s⁻¹
kon [1]: 820000 M⁻¹ s⁻¹
koff [2]: 0.25 s⁻¹
kon [2]: 350000 M⁻¹ s⁻¹
B1: FRET-peptide Abz-AMESVMGYFHRSQ-EDDnp (peptide)
peptide: [2Abz]AMESVMGYFHRSQ-EDDnp
notes: the peptide has Met where TIMP-1 has Cys70 (cleaved bond Val-Met); also called FRET-peptide substrate; FRET substrate; source: synthetic peptide (solid phase, Fmoc; HPLC purified)
